B1: F1*; the commonest letter at each place (parent)
chain: GAGACCGCAACTGAAAAGTTGTTATCACTTGTCGTAAGACACTTTGGATGGGTTGAAGTTCTGCACGTAGAAGCAAAAGGC

This is an account of results in the supplement of paper PMC6755084.

In this data set the parent is B1. Description: fraction ligated after 30 min (ligated reads / total reads); higher = more ligase activity. Particulars: with F1*sub RNA substrate (template-directed ligation), 42 °C. The essentials: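 Oligo-pool templates underwent PCR amplification, T7 transcription and gel purification to yield ribozyme variants. Gel-separated ligated and unligated bands were converted to complementary DNA with barcoded primers and sequenced on a MiSeq, keeping core bases of quality ≥20. The ratio of ligated reads to total reads gave the fraction ligated for every variant.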
With GAGACCGCAACTGAAAAGTTGTTATCACTGGTCGTAAGACACTTTGGATGGGTTGCAGTTCTGCACGTAGAAGCAAAAGGC [T30G A56C], the fraction ligated was found to be 0.786.

GAGACCGCAACTGAAAAGTTGTTATCACTGGTCGTAAGACACTTTGGATGGGTTGGAGTTCTGCACGTAGAAGCAAAAGGC [T30G A56G]: the fraction ligated came out at 0.757.

On to GAGACCGCAACTGAAAAGTTGTTATCACTGGTCGTAAGACACTTTGGATGGGTTGTAGTTCTGCACGTAGAAGCAAAAGGC [T30G A56T], for which the fraction ligated came out at 0.797.

As for GAGACCGCAACTGAAAAGTTGTTATCACTGGGCGTAAGACACTTTGGATGGGTTGAAGTTCTGCACGTAGAAGCAAAAGGC [T30G T32G], the fraction ligated was 0.865.

GAGACCGCAACTGAAAAGTTGTTATCACTGGCCGTAAGACACTTTGGATGGGTTGAAGTTCTGCACGTAGAAGCAAAAGGC [T30G T32C]: the fraction ligated was found to be 0.784.

In the case of GAGACCGCAACTGAAAAGTTGTTATCACTGGACGTAAGACACTTTGGATGGGTTGAAGTTCTGCACGTAGAAGCAAAAGGC [T30G T32A], the fraction ligated is 0.883.

For the variant GAGACCGCAACTGAAAAGTTGTTATCACTGGGGGTAACCCCCTTTGGATGGGTTGAAGTTCTGCACGTAGAAGCAAAAGGC [T30G T32G C33G G38C A39C A41C], the fraction ligated was found to be 0.862.

In the case of GAGACCGCAACTGAAAAGTTGTTATCACTTATCGTTAGACACTTTGGATGGGTTGAAGTTCTGCACGTAGAAGCAAAAGGC [G31A A36T], the fraction ligated turned out to be 0.827.

For GAGACCGCAACTGAAAAGTTGTTATCACTTATCGTCAGACACTTTGGATGGGTTGAAGTTCTGCACGTAGAAGCAAAAGGC [G31A A36C], the fraction ligated is 0.8.

Take GAGACCGCAACTGAAAAGTTGTTATCACTTATCGTGAGACACTTTGGATGGGTTGAAGTTCTGCACGTAGAAGCAAAAGGC [G31A A36G]: the fraction ligated came out at 0.595.

For GAGACCGCAACTGAAAAGTTGTTATCACTGGTCGTAAGACACTTTGCATGGGTTGAAGTTCTGCACGTAGAAGCAAAAGGC [T30G G47C], the fraction ligated came to 0.0588.

Regarding GAGACCGCAACTGAAAAGTTGTTATCACTGGTCGTAAGACACTTTGAATGGGTTGAAGTTCTGCACGTAGAAGCAAAAGGC [T30G G47A], the fraction ligated stood at 0.654.

Take GAGACCGCAACTGAAAAGTTGTTATCACTGGTCGTAAGACACTTTGTATGGGTTGAAGTTCTGCACGTAGAAGCAAAAGGC [T30G G47T]: the fraction ligated was 0.15.

GAGACCGCAACTGAAAAGTTGTTATCACTTATCGTACGACACTTTGGATGGGTTGAAGTTCTGCACGTAGAAGCAAAAGGC [G31A A37C]: the fraction ligated was found to be 0.813.

Regarding GAGACCGCAACTGAAAAGTTGTTATCACTGTTCGTAAGACACTTTGGATGGGTTGAAGTTCTGCACGTAGAAGCAAAAGGC [T30G G31T], the fraction ligated came to 0.853.

GAGACCGCAACTGAAAAGTTGTTATCACTGATCGTAAGACACTTTGGATGGGTTGAAGTTCTGCACGTAGAAGCAAAAGGC [T30G G31A]: the fraction ligated was 0.853.

With GAGACCGCAACTGAAAAGTTGTTATCACTGCTCGTAAGACACTTTGGATGGGTTGAAGTTCTGCACGTAGAAGCAAAAGGC [T30G G31C], the fraction ligated amounted to 0.845.

Regarding GAGACCGCAACTGAAAAGTTGTTATCACTGGCCGTAAGGCCCTTTGGATGGGTTGAAGTTCTGCACGTAGAAGCAAAAGGC [T30G T32C A39G A41C], the fraction ligated came out at 0.803.

Regarding GAGACCGCAACTGAAAAGTTGTTATCACTGGTCGTAAGACACTTTGGATGGGTTGACGTTCTGCACGTAGAAGCAAAAGGC [T30G A57C], the fraction ligated stood at 0.806.

GAGACCGCAACTGAAAAGTTGTTATCACTGGTCGTAAGACACTTTGGATGGGTTGAGGTTCTGCACGTAGAAGCAAAAGGC [T30G A57G]: the fraction ligated came to 0.787.

For the variant GAGACCGCAACTGAAAAGTTGTTATCACTGGTCGTAAGACACTTTGGATGGGTTGATGTTCTGCACGTAGAAGCAAAAGGC [T30G A57T], the fraction ligated turned out to be 0.828.

Take GAGACCGCAACTGAAAAGTTGTTATCACTGGTCGTAAGACACTTTGGACGGGTTGAAGTTCTGCACGTAGAAGCAAAAGGC [T30G T49C]: the fraction ligated turned out to be 0.526.

GAGACCGCAACTGAAAAGTTGTTATCACTGGTCGTAAGACACTTTGGAGGGGTTGAAGTTCTGCACGTAGAAGCAAAAGGC [T30G T49G]: the fraction ligated stood at 0.808.

On to GAGACCGCAACTGAAAAGTTGTTATCACTGGTCGTAAGACACTTTGGAAGGGTTGAAGTTCTGCACGTAGAAGCAAAAGGC [T30G T49A], for which the fraction ligated turned out to be 0.739.

Take GAGACCGCAACTGAAAAGTTGTTATCACTGGTCGTAAGACACTTTGGATGGGTTCAAGTTCTGCACGTAGAAGCAAAAGGC [T30G G55C]: the fraction ligated amounted to 0.793.

Regarding GAGACCGCAACTGAAAAGTTGTTATCACTGGTCGTAAGACACTTTGGATGGGTTTAAGTTCTGCACGTAGAAGCAAAAGGC [T30G G55T], the fraction ligated came out at 0.819.

On to GAGACCGCAACTGAAAAGTTGTTATCACTGGTCGTAAGACACTTTGGATGGGTTAAAGTTCTGCACGTAGAAGCAAAAGGC [T30G G55A], for which the fraction ligated was 0.846.

In the case of GAGACCGCAACTGAAAAGTTGTTATCACTGGTCGTAAGACATTTTGGATGGGTTGAAGTTCTGCACGTAGAAGCAAAAGGC [T30G C42T], the fraction ligated was found to be 0.817.

Turning to GAGACCGCAACTGAAAAGTTGTTATCACTGGTCGTAAGACAGTTTGGATGGGTTGAAGTTCTGCACGTAGAAGCAAAAGGC [T30G C42G], the fraction ligated was 0.834.

Regarding GAGACCGCAACTGAAAAGTTGTTATCACTGGTCGTAAGACAATTTGGATGGGTTGAAGTTCTGCACGTAGAAGCAAAAGGC [T30G C42A], the fraction ligated was 0.831.

In the case of GAGACCGCAACTGAAAAGTTGTTATCACTGGTCGTAAGACACTCTGGATGGGTTGAAGTTCTGCACGTAGAAGCAAAAGGC [T30G T44C], the fraction ligated is 0.808.

Turning to GAGACCGCAACTGAAAAGTTGTTATCACTGGTCGTAAGACACTATGGATGGGTTGAAGTTCTGCACGTAGAAGCAAAAGGC [T30G T44A], the fraction ligated was 0.831.

Regarding GAGACCGCAACTGAAAAGTTGTTATCACTGGTCGTAAGACACTGTGGATGGGTTGAAGTTCTGCACGTAGAAGCAAAAGGC [T30G T44G], the fraction ligated was found to be 0.798.

For the variant GAGACCGCAACTGAAAAGTTGTTATCACTGGTCGTAAGACACATTGGATGGGTTGAAGTTCTGCACGTAGAAGCAAAAGGC [T30G T43A], the fraction ligated turned out to be 0.859.
